B1: BBSome complex member BBS4 (Homo sapiens), Q96RK4 (parent)
chain: MAEERVATRTQFPVSTESQKPRQKKAPEFPILEKQNWLIHLHYIRKDYEACKAVIKEQLQETQGLCEYAIYVQALIFRLEGNIQESLELFQTCAVLSPQSADNLKQVARSLFLLGKHKAAIEVYNEAAKLNQKDWEISHNLGVCYIYLKQFNKAQDQLHNALNLNRHDLTYIMLGKIHLLEGDLDKAIEVYKKAVEFSPENTELLTTLGLLYLQLGIYQKAFEHLGNALTYDPTNYKAILAAGSMMQTHGDFDVALTKYRVVACAVPESPPLWNNIGMCFFGKKKYVAAISCLKRANYLAPFDWKILYNLGLVHLTMQQYASAFHFLSAAINFQPKMGELYMLLAVALTNLEDIENAKRAYAEAVHLDKCNPLVNLNYAVLLYNQGEKKNALAQYQEMEKKVSLLKDNSSLEFDSEMVEMAQKLGAALQVGEALVWTKPVKDPKSKHQTTSTSKPASFQQPLGSNQALGQAMSSAAAYRTLPSGAGGTSQFTKPPSLPLEPEPAVESSPTETSEQIREK
partner: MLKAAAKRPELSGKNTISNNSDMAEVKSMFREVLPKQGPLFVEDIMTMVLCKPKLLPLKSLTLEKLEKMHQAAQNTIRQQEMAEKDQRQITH

Variants of: B1
Conditions: with bbip1_human BBIP1, A8MTZ0

| effect of a mutation on the interaction | Variant |
| --- | --- |
| with no effect | Q429A |
| with no effect | Q466K |
| with no effect | Q515A |
| with no effect | Q515K |
| with no effect | S457K |
| with no effect | Y478K |
| with no effect | R517E |
| with no effect | V418A |
| with no effect | P501A |
| with no effect | M417E |
| disrupting interaction strength | L428P |
| with no effect | T480A |
| with no effect | S409E |
| with no effect | S513A |
| with no effect | S513K |
| with no effect | G469A |
| with no effect | K438A |
| with no effect | K438E |
| with no effect | Q459E |
| with no effect | Q396K |
| with no effect | L424K |
| with no effect | L424E |
| with no effect | D414A |
| with no effect | V430A |

| effect of a mutation on the interaction | Variant |
| --- | --- |
| with no effect | S410A |
| with no effect | T512K |
| with no effect | P495E |
| with no effect | G484E |
| with no effect | S507A |
| with no effect | T452E |
| with no effect | S473K |
| with no effect | K389E |
| with no effect | S489K |
| with no effect | A456K |
| with no effect | P494E |
| with no effect | P509A |
| with no effect | G463A |
| with no effect | G463K |
| with no effect | G463E |
| with no effect | G486K |
| disrupting interaction strength | A391T |
| with no effect | K493A |
| with no effect | I516E |
| with no effect | P461K |
| disrupting interaction strength | Y395H |
| with no effect | Y395A |
| with no effect | L434K |
| with no effect | A426K |

| effect of a mutation on the interaction | Variant |
| --- | --- |
| with no effect | A504E |
| with no effect | E506A |
| with no effect | L411E |
| with no effect | N408E |
| with no effect | L392A |
| disrupting interaction strength | K401V |
| with no effect | N465K |
| with no effect | E399A |
| with no effect | T437E |
| with no effect | K441E |
| with no effect | K441A |
| with no effect | E397K |
| with no effect | S483A |
| with no effect | P443E |
| with no effect | D407A |
| with no effect | D407K |
| with no effect | M398A |
| disrupting interaction strength | Q394L |
| with no effect | Q394K |
| with no effect | P455E |
| with no effect | D442A |
| with no effect | Q470K |
| with no effect | Q470E |
| with no effect | Q470A |

Continued, variant first:

| Variant | effect of a mutation on the interaction |
| --- | --- |
| N297K | with no effect |
| N297E | with no effect |
| I331K | with no effect |
| I331A | with no effect |
| P372A | with no effect |
| G338E | disrupting interaction strength |
| Y361K | with no effect |
| N371A | with no effect |
| Q385K | with no effect |
| F302K | with no effect |
| N384A | with no effect |
| A345K | with no effect |
| V365E | with no effect |
| Y308A | with no effect |
| E363G | disrupting interaction strength |
| A347K | with no effect |
| V380E | with no effect |
| V380K | with no effect |
| N356E | with no effect |
| N356A | with no effect |
| Q318A | with no effect |
| L343R | disrupting interaction strength |
| L343A | with no effect |
| M317A | with no effect |
| M317E | with no effect |
| A329K | with no effect |

| Variant | effect of a mutation on the interaction |
| --- | --- |
| Q319A | with no effect |
| Y378E | with no effect |
| Y378A | with no effect |
| L272A | with no effect |
| L272K | with no effect |
| W304A | with no effect |
| F324E | with no effect |
| F324K | with no effect |
| F324P | disrupting interaction strength |
| P301K | with no effect |
| F333K | with no effect |
| F333E | with no effect |
| Y298A | with no effect |
| I306K | with no effect |
| S269E | with no effect |
| E352A | with no effect |
| H314K | with no effect |
| F326E | with no effect |
| V346E | disrupting interaction strength |
| S328K | with no effect |
| M342V | disrupting interaction strength |
| W273E | with no effect |
| W273A | with no effect |
| N332E | with no effect |
| N332A | with no effect |
| N332K | with no effect |

| Variant | effect of a mutation on the interaction |
| --- | --- |
| N332Y | disrupting interaction strength |
| R359E | with no effect |
| Y341D | disrupting interaction strength |
| Y341A | disrupting interaction strength |
| I290E | with no effect |
| I290K | with no effect |
| L382K | with no effect |
| P270E | with no effect |
| L312K | with no effect |
| L312H | disrupting interaction strength |
| S322E | with no effect |
| F280E | with no effect |
| G282A | with no effect |
| G282K | with no effect |
| K283E | with no effect |
| L327K | with no effect |
| L327E | with no effect |
| L367P | disrupting interaction strength |
| V313K | with no effect |
| L340F | disrupting interaction strength |
| N377K | with no effect |
| H366E | with no effect |
| H366K | with no effect |
| A289V | disrupting interaction strength |
| D368A | with no effect |
| C292E | with no effect |

| Variant | effect of a mutation on the interaction |
| --- | --- |
| C292A | with no effect |
| N309E | with no effect |
| N309K | with no effect |
| M337A | with no effect |
| D303K | with no effect |
| P271A | with no effect |
| P271K | with no effect |
| P271E | with no effect |
| A364E | with no effect |
| A364K | with no effect |
| M278E | with no effect |
| M278T | disrupting interaction strength |
| L376K | with no effect |
| L376R | disrupting interaction strength |
| Y320E | with no effect |
| N275E | with no effect |
| N350A | with no effect |
| P335K | with no effect |
| A300E | with no effect |
| L348P | disrupting interaction strength |
| L348K | with no effect |
| L348R | disrupting interaction strength |
| L348A | with no effect |
| A357K | with no effect |
| A357V | disrupting interaction strength |
| L344K | with no effect |
